{
  "source": "paper PMC6197867",
  "about": "“Isolation and purification of recombinant immunoglobulin light chain variable domains from the periplasmic space of Escherichia coli” (PLoS ONE, 2018)",
  "molecular_target": "the molecule itself",
  "assay": "SEC-MALS; 1.0 mg/mL protein on HiLoad 16/60 Superdex 75 in 10 mM Tris-HCl pH 7.5, 150 mM NaCl, 0.75 mL/min, 25 °C; monomer to dimer",
  "data": [
    {"protein": "LEN immunoglobulin light chain variable domain (kappa 4), recombinant (domain or fragment, 114 amino acid kappa 4 light chain variable domain of the Bence Jones protein LEN, from a patient with multiple myeloma; The C-terminal Lys-His8 of pOPINO was removed by a premature stop codon; removal of the ompA leader was confirmed by mass spectrometry, so the protein has no added residues; also called VL LEN; source: E. coli C41 (DE3), periplasmic expression, osmotic shock, purified …) VL: not shown", "values": [
      {"measurement": "stoichiometry N", "value": 2}
    ]},
    {"protein": "SMA immunoglobulin light chain variable domain (kappa 4), recombinant (domain or fragment, 114 amino acid kappa 4 light chain variable domain SMA, first extracted as amyloid fibrils from a patient with AL amyloidosis; The C-terminal Lys-His8 of pOPINO was removed by a premature stop codon; the ompA leader is cleaved; also called VL SMA; source: E. coli C41 (DE3), periplasmic expression, osmotic shock, purified (isoelectric precipitation, cation exchange, SEC); not shown: ompA leader …) VL: not shown", "values": [
      {"measurement": "stoichiometry N", "value": 2}
    ]}
  ]
}
